What was measured:
bile salts [1] = assay: Specificity testing of the CadC-TcpP bactosensor across a panel of twelve bile salts
bile salts [2] = type: cell-based, E. coli; conditions: kinetic analysis, data not shown
Taurocholic acid = type: cell-based, E. coli

B1: TcpPwt: Wild-type V. cholerae TcpP bile salt sensing domain, loop NYEQ (SEQ ID NO:4/24), fused to E. coli CadC DNA binding domain (SEQ ID NO:48) (protein)
chain: MQQPVVRVGEWLVTPSINQISRNGRQLTLEPRLIDLLVFFAQHSGEVLSRDELIDNVWKRSIVTNHVVTQSISELRKSLKDNDEDSPVYIATVPKRGYKLMVPVIWYSEEEGEEIMLSSPPPIPEAVPATDSPSHSLNIQNTATPPEQSPVKSKRVVPYLVFSALYVALLPVIWWSYGQWYQHELAGITHDLRDLARLPGITIQKLSEQKLTFAIDQHQCSVNYEQKTLECTKN
modifications: Synthetic bile salts chimeric receptor
response to secondary bile salts (bile salts [1]): did not respond
specificity across bile salts (bile salts [1]; primary and secondary types): highly specific for primary conjugated bile salts

B2: SV_3-3-18: TcpP bile salt sensing domain variant, loop VFSD (SEQ ID NO:10/30), CadC fusion SEQ ID NO:54; best engineered variant (protein)
chain: MQQPVVRVGEWLVTPSINQISRNGRQLTLEPRLIDLLVFFAQHSGEVLSRDELIDNVWKRSIVTNHVVTQSISELRKSLKDNDEDSPVYIATVPKRGYKLMVPVIWYSEEEGEEIMLSSPPPIPEAVPATDSPSHSLNIQNTATPPEQSPVKSKRVVPYLVFSALYVALLPVIWWSYGQWYQHELAGITHDLRDLARLPGITIQKLSEQKLTFAIDQHQCSVVFSDKTLECTKN
modifications: Synthetic bile salts chimeric receptor
response speed at low ligand concentration compared to wt TcpP (bile salts [2]): faster response at low ligand concentration

B3: SV_3-3-16: TcpP bile salt sensing domain variant, loop DFLT (SEQ ID NO:9/29), CadC fusion SEQ ID NO:53 (protein)
chain: MQQPVVRVGEWLVTPSINQISRNGRQLTLEPRLIDLLVFFAQHSGEVLSRDELIDNVWKRSIVTNHVVTQSISELRKSLKDNDEDSPVYIATVPKRGYKLMVPVIWYSEEEGEEIMLSSPPPIPEAVPATDSPSHSLNIQNTATPPEQSPVKSKRVVPYLVFSALYVALLPVIWWSYGQWYQHELAGITHDLRDLARLPGITIQKLSEQKLTFAIDQHQCSVDFLTKTLECTKN
modifications: Synthetic bile salts chimeric receptor
EC50 (Taurocholic acid; taurocholic acid (TCA) as ligand, GFP output): 42.1 µM
Max fold change (Taurocholic acid; taurocholic acid titration): 75.73
